Broadly, the IC50 is the concentration that gives 50% inhibition. A low value points to greater potency in that assay.

affinity, IC50 and change of the IC50 against the ErbB4 ectodomain-Fc homodimer data for one substance are collected here from patent US20060234343A1.

The target in assay [1] is ErbB4 497.Fc (truncated ErbB4 ectodomain-Fc fusion protein homodimer) (human) (UniProt Q15303). Briefly: summary of the Eu-ligand displacement assays (ErbB4 fragment, HRGβ).
Assay [2] deals with ErbB3 500.Fc (truncated ErbB3 ectodomain-Fc fusion protein homodimer) (human) (UniProt P21860). The experiment in a line: displacement of Eu-HRGβ by unlabelled HRGβ from ErbB3 500.Fc captured on protein G.
ErbB3 500.Fc (truncated ErbB3 ectodomain-Fc fusion protein homodimer) (human), sequence (P21860 20-500, form in doubt): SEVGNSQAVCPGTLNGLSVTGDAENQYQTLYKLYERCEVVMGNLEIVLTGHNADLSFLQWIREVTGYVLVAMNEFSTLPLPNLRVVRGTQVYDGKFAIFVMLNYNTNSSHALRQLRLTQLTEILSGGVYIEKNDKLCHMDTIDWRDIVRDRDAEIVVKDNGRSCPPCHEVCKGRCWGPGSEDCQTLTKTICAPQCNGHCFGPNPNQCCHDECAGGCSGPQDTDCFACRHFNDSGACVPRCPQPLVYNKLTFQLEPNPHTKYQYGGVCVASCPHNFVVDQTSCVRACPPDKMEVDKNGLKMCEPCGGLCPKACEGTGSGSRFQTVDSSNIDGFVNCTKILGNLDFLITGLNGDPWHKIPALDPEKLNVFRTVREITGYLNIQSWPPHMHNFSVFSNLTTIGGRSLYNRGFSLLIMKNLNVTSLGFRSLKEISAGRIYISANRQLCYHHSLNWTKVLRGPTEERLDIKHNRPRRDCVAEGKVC
The target is the same in assay [3]. The experiment in a line: summary of the Eu-ligand displacement assays (ErbB3 fragment, HRGβ).
Assay [4] has as its target ErbB2/4 full-length ectodomain-Fc heterodimer (human) (UniProt P04626). Briefly: displacement of Eu-BTC by unlabelled HRGβ from ErbB2/4 ectodomain-Fc captured on protein G.
Assay [5] has as its target full-length ErbB4 ectodomain-Fc fusion homodimer (human) (UniProt Q15303). Briefly: displacement of Eu-BTC by unlabelled HRGβ from ErbB4 ectodomain-Fc captured on protein G.
The target in assay [6] is ErbB4 497.Fc (truncated ErbB4 ectodomain-Fc fusion protein homodimer) (human) (UniProt Q15303). Briefly: displacement of Eu-HRGβ by unlabelled HRGβ from ErbB4 497.Fc captured on protein G.

ErbB4 497.Fc (truncated ErbB4 ectodomain-Fc fusion protein homodimer) (human), sequence (Q15303 26-497, form in doubt): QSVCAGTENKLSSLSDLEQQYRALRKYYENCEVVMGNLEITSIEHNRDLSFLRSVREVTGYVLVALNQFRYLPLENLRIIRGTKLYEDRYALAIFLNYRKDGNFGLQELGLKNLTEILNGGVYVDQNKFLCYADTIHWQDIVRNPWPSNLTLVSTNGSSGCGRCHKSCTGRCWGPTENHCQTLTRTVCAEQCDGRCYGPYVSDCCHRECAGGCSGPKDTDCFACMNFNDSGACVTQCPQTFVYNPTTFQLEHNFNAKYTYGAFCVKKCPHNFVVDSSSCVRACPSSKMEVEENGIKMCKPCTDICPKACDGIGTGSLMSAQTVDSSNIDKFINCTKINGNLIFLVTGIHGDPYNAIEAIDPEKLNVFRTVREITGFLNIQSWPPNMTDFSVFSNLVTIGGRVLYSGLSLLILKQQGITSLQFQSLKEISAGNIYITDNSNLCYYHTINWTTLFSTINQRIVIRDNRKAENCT
full-length ErbB4 ectodomain-Fc fusion homodimer (human), sequence (Q15303 26-651): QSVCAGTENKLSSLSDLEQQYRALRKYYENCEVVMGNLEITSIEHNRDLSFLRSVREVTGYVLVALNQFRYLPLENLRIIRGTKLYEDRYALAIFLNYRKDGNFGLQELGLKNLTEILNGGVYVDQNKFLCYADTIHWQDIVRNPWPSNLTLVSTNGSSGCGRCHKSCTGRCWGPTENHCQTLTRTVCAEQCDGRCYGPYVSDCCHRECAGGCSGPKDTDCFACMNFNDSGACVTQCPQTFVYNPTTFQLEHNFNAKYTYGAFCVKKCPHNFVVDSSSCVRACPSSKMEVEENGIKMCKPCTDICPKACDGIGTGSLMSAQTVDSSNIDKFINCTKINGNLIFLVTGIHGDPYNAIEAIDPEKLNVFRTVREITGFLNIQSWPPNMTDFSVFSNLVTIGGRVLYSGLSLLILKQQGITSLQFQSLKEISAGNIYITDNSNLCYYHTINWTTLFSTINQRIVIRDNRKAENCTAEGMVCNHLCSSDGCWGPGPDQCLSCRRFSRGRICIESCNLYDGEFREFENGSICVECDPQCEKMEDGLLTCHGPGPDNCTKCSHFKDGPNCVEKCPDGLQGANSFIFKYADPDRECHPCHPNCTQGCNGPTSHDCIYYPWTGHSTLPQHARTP

As to β-heregulin (HRGβ, Sigma) (ligand), the affinity in assay [1] and in assay [3] was less than 1 nM each time. Further, the IC50 in assay [2] worked out at 0.49 nM; in assay [5], 18 nM; in assay [6] it was 0.057 nM. The change of the IC50 against the ErbB4 ectodomain-Fc homodimer in assay [4] turned out to be 100 fold.
